Assay results as given in article PMC11417369, “DNA sequence and chromatin differentiate sequence-specific transcription factor binding in the human malaria parasite Plasmodium falciparum”.

B1: GTGCAC_site10115 (dsDNA)
DNA 1: TTTGTTTGTAAAATGTTGCACTTTCTTTTGCTGATA
DNA 2: TATCAGCAAAAGAAAGTGCAACATTTTACAAACAAA
B2: GTGCAC_site9756 (dsDNA)
DNA 1: TACTTATTTAAAATAGTGCATGAATAGAAGATATAT
DNA 2: ATATATCTTCTATTCATGCACTATTTTAAATAAGTA
B3: GTGCAC_site9605 (dsDNA)
DNA 1: AAGGGAAAAATATGGTTGCACTAAAAATATGTAATT
DNA 2: AATTACATATTTTTAGTGCAACCATATTTTTCCCTT
B4: GTGCAC_negctrl_site161 (dsDNA)
DNA 1: AGAAAAAAAAAAAAAAATAAAAAAATAAATAAATAA
DNA 2: TTATTTATTTATTTTTTTATTTTTTTTTTTTTTTCT
B5: GTGCAC_negctrl_site185 (dsDNA)
DNA 1: AAAAGAAAAATGTCATATGATATCATATATTTTATA
DNA 2: TATAAAATATATGATATCATATGACATTTTTCTTTT
B6: GTGCAC_site10541 (dsDNA)
DNA 1: TTCAAATAAATAGTAGTGCATATTTATTAATGTAAA
DNA 2: TTTACATTAATAAATATGCACTACTATTTATTTGAA
B7: GTGCAC_site10457 (dsDNA)
DNA 1: TACAATATATTTATAGTGCATATTACTTTTAACTTT
DNA 2: AAAGTTAAAAGTAATATGCACTATAAATATATTGTA
B8: GTGCAC_site10402 (dsDNA)
DNA 1: TTACACATGTATTTGGTGCATGTTGTTAACAAAATA
DNA 2: TATTTTGTTAACAACATGCACCAAATACATGTGTAA
B9: GTGCAC_site10283 (dsDNA)
DNA 1: AAAATAATTTTATAAGTGCAAAATAGCTTATTTATA
DNA 2: TATAAATAAGCTATTTTGCACTTATAAAATTATTTT
B10: GTGCAC_site10554 (dsDNA)
DNA 1: TATATATATATATGAGTGCATATGTGTAATATAAAA
DNA 2: TTTTATATTACACATATGCACTCATATATATATATA
B11: GTGCAC_site9414 (dsDNA)
DNA 1: TTAAATATTTTTAGAGTGCATGTAATAAAAATATAA
DNA 2: TTATATTTTTATTACATGCACTCTAAAAATATTTAA
B12: GTGCAC_negctrl_site234 (dsDNA)
DNA 1: GACAAAAAATTAAAATAAAATAATAATATAATAAAA
DNA 2: TTTTATTATATTATTATTTTATTTTAATTTTTTGTC
B13: GTGCAC_site9560 (dsDNA)
DNA 1: ATACATCGTATATAAGTGCATATTAAGGTCTTAAGA
DNA 2: TCTTAAGACCTTAATATGCACTTATATACGATGTAT
B14: GTGCAC_site10325 (dsDNA)
DNA 1: TATATACATGTGAGAGTGCATATAGACATAAAAAAT
DNA 2: ATTTTTTATGTCTATATGCACTCTCACATGTATATA
B15: GTGCAC_site10006 (dsDNA)
DNA 1: ATATATTAACAAAAGGTGCTTTTGGCAAAGTATAAT
DNA 2: ATTATACTTTGCCAAAAGCACCTTTTGTTAATATAT
B16: GTGCAC_negctrl_site662 (dsDNA)
DNA 1: TTTTAATGAAATATCAAAAAAATTTATGATTTCAAA
DNA 2: TTTGAAATCATAAATTTTTTTGATATTTCATTAAAA
B17: GTGCAC_site10638 (dsDNA)
DNA 1: TAATATAATGATGCAGTGCATATGTTAAAATGAAAA
DNA 2: TTTTCATTTTAACATATGCACTGCATCATTATATTA
B18: GTGCAC_site9741 (dsDNA)
DNA 1: ATTCATATTTTTCAAGTGCGCATTAAAATATTAACC
DNA 2: GGTTAATATTTTAATGCGCACTTGAAAAATATGAAT
B19: GTGCAC_site10208 (dsDNA)
DNA 1: TTTTGTTATTAGAGGGTGCTTATAATGAACTCCTAC
DNA 2: GTAGGAGTTCATTATAAGCACCCTCTAATAACAAAA
B20: GTGCAC_site10324 (dsDNA)
DNA 1: TTGTTTTATTATTCGATGCACTACAGAAATATATTC
DNA 2: GAATATATTTCTGTAGTGCATCGAATAATAAAACAA
B21: GTGCAC_site10715 (dsDNA)
DNA 1: TTTTTGTAACCGATTCTGCACTGAGAAGCACATATA
DNA 2: TATATGTGCTTCTCAGTGCAGAATCGGTTACAAAAA
B22: GTGCAC_site9599 (dsDNA)
DNA 1: TTATATGTATATATAGTGCAGAACAAAAGATTATAT
DNA 2: ATATAATCTTTTGTTCTGCACTATATATACATATAA
B23: GTGCAC_site9816 (dsDNA)
DNA 1: AAGACATTTTTTAAGGTGCTTTGGAAAAAGGAGTAT
DNA 2: ATACTCCTTTTTCCAAAGCACCTTAAAAAATGTCTT
B24: GTGCAC_negctrl_site256 (dsDNA)
DNA 1: AATGATTTTAAATGAACATAATTTATATTCATAACA
DNA 2: TGTTATGAATATAAATTATGTTCATTTAAAATCATT
B25: GTGCAC_site10046 (dsDNA)
DNA 1: TTTTTGTTATATAAAGTGCAGTGACAAGCAGTTTAA
DNA 2: TTAAACTGCTTGTCACTGCACTTTATATAACAAAAA
B26: GTGCAC_negctrl_site587 (dsDNA)
DNA 1: AAAAAAATAAAATTATATAAAATAAATTTTTATAAT
DNA 2: ATTATAAAAATTTATTTTATATAATTTTATTTTTTT
B27: GTGCAC_site9563 (dsDNA)
DNA 1: AAAATAATCTTTTGATTGCACTGTTACATTTTTTCT
DNA 2: AGAAAAAATGTAACAGTGCAATCAAAAGATTATTTT
B28: GTGCAC_negctrl_site531 (dsDNA)
DNA 1: AAATAAATTAAAATAAATTAAATTAAATTAGCATTA
DNA 2: TAATGCTAATTTAATTTAATTTATTTTAATTTATTT
B29: GTGCAC_site10708 (dsDNA)
DNA 1: TTCTAAAATTATATAGTGCAATTATATTAATTTTTC
DNA 2: GAAAAATTAATATAATTGCACTATATAATTTTAGAA
B30: GTGCAC_negctrl_site123 (dsDNA)
DNA 1: TCCTTAAAAATCTAAAAAGAAAAAAACATATATTTT
DNA 2: AAAATATATGTTTTTTTCTTTTTAGATTTTTAAGGA
B31: GTGCAC_site10475 (dsDNA)
DNA 1: TAATGTTCCTATATAGTGCAATTATGTTTTATTTCT
DNA 2: AGAAATAAAACATAATTGCACTATATAGGAACATTA
B32: GTGCAC_site10497 (dsDNA)
DNA 1: AAAAAAAAAAAATGTGTGCACATTATTTCAACTTAA
DNA 2: TTAAGTTGAAATAATGTGCACACATTTTTTTTTTTT
B33: GTGCAC_site9771 (dsDNA)
DNA 1: GTACGTTTCTCCAGACTGCACTATACGACTCGTACA
DNA 2: TGTACGAGTCGTATAGTGCAGTCTGGAGAAACGTAC
B34: GTGCAC_site10627 (dsDNA)
DNA 1: TTAAGATACAAAAAAGTGCATATTTTTTAACAAAAA
DNA 2: TTTTTGTTAAAAAATATGCACTTTTTTGTATCTTAA
B35: GTGCAC_site9681 (dsDNA)
DNA 1: ACTACGAATGGTAGAGTGCAGTCTGGAGAAAAGTAC
DNA 2: GTACTTTTCTCCAGACTGCACTCTACCATTCGTAGT
B36: GTGCAC_site10565 (dsDNA)
DNA 1: AAAAAAGAACGCATAGTGCATATCTAAAAGATTTTT
DNA 2: AAAAATCTTTTAGATATGCACTATGCGTTCTTTTTT
B37: GTGCAC_site10493 (dsDNA)
DNA 1: AAAGGATTTATACTAGTGCAAAAATATAAAAATATA
DNA 2: TATATTTTTATATTTTTGCACTAGTATAAATCCTTT
B38: GTGCAC_negctrl_site307 (dsDNA)
DNA 1: AATAATAAACACAATCAAATAAAATATGAAATATAA
DNA 2: TTATATTTCATATTTTATTTGATTGTGTTTATTATT
B39: GTGCAC_negctrl_site37 (dsDNA)
DNA 1: AATAAATAAATAAATTAATAAATTAATAAATTAATA
DNA 2: TATTAATTTATTAATTTATTAATTTATTTATTTATT
B40: GTGCAC_site9514 (dsDNA)
DNA 1: GTAGGATTTTCTTTTGTGCGCAATATAAAAAGAAAA
DNA 2: TTTTCTTTTTATATTGCGCACAAAAGAAAATCCTAC
B41: GTGCAC_negctrl_site558 (dsDNA)
DNA 1: AAATAATATATTCTATATAATAAATTATAAATATAA
DNA 2: TTATATTTATAATTTATTATATAGAATATATTATTT
B42: GTGCAC_negctrl_site309 (dsDNA)
DNA 1: AATGATGTTGTATTGTTTCGATATAACATCTAATTT
DNA 2: AAATTAGATGTTATATCGAAACAATACAACATCATT
B43: GTGCAC_site9973 (dsDNA)
DNA 1: AATTAAAAGTGAAGAGTGCATAGAATTTTTTACTTT
DNA 2: AAAGTAAAAAATTCTATGCACTCTTCACTTTTAATT
B44: GTGCAC_negctrl_site139 (dsDNA)
DNA 1: TGATGAAAATCTACATGAATGTTTTTATATCTATAT
DNA 2: ATATAGATATAAAAACATTCATGTAGATTTTCATCA

What follows are binders tested against AP2-I D3 (Plasmodium falciparum, UniProt Q8IJW6 910-1027) (assay: gcPBM; about 25 ug protein; PBS, 1% milk, 0.2 mg/ml BSA, salmon testes DNA, 0.03% Triton X-100). Conditions: tags: N-terminal GST (pGEX-4T-1), kept; label: surface-attached array probe.
In the case of B1, the binding signal is reported as 9.33 ln median PBM intensity, better of two orientations. For B2, the binding signal was 9.47 ln median PBM intensity, better of two orientations. In the case of B3, the binding signal is reported as 9.25 ln median PBM intensity, better of two orientations. With B4 the binding signal was 6.87 ln median PBM intensity, better of two orientations. For B5, the binding signal was 6.79 ln median PBM intensity, better of two orientations. With B6 the binding signal was 9.69 ln median PBM intensity, better of two orientations. B7 was tested, and the binding signal was 9.8 ln median PBM intensity, better of two orientations. With B8 the binding signal was 9.49 ln median PBM intensity, better of two orientations. With B9 the binding signal was 9.62 ln median PBM intensity, better of two orientations. For B10, the binding signal was 9.85 ln median PBM intensity, better of two orientations. With B11 the binding signal was 9.27 ln median PBM intensity, better of two orientations. For B12, the binding signal was 6.9 ln median PBM intensity, better of two orientations. B13 was tested, and the binding signal was 9.59 ln median PBM intensity, better of two orientations. For B14, the binding signal was 10 ln median PBM intensity, better of two orientations. For B15, the binding signal was 9.45 ln median PBM intensity, better of two orientations. For B16, the binding signal was 6.64 ln median PBM intensity, better of two orientations. In the case of B17, the binding signal is reported as 9.15 ln median PBM intensity, better of two orientations. For B18, the binding signal was 9.34 ln median PBM intensity, better of two orientations. B19 was tested, and the binding signal was 9.87 ln median PBM intensity, better of two orientations. In the case of B20, the binding signal is reported as 9.21 ln median PBM intensity, better of two orientations. B21 was tested, and the binding signal was 9.57 ln median PBM intensity, better of two orientations. B22 was tested, and the binding signal was 9.82 ln median PBM intensity, better of two orientations. With B23 the binding signal was 9.5 ln median PBM intensity, better of two orientations. B24 was tested, and the binding signal was 6.86 ln median PBM intensity, better of two orientations. In the case of B25, the binding signal is reported as 9.65 ln median PBM intensity, better of two orientations. For B26, the binding signal was 6.82 ln median PBM intensity, better of two orientations. In the case of B27, the binding signal is reported as 9.41 ln median PBM intensity, better of two orientations. For B28, the binding signal was 6.62 ln median PBM intensity, better of two orientations. B29 was tested, and the binding signal was 9.54 ln median PBM intensity, better of two orientations. For B30, the binding signal was 6.9 ln median PBM intensity, better of two orientations. In the case of B31, the binding signal is reported as 9.98 ln median PBM intensity, better of two orientations. B32 was tested, and the binding signal was 9.36 ln median PBM intensity, better of two orientations. In the case of B33, the binding signal is reported as 9.61 ln median PBM intensity, better of two orientations. B34 was tested, and the binding signal was 9.96 ln median PBM intensity, better of two orientations. B35 was tested, and the binding signal was 9.19 ln median PBM intensity, better of two orientations. In the case of B36, the binding signal is reported as 9.16 ln median PBM intensity, better of two orientations. In the case of B37, the binding signal is reported as 9.74 ln median PBM intensity, better of two orientations. With B38 the binding signal was 6.89 ln median PBM intensity, better of two orientations. B39 was tested, and the binding signal was 6.84 ln median PBM intensity, better of two orientations. For B40, the binding signal was 9.23 ln median PBM intensity, better of two orientations. With B41 the binding signal was 6.74 ln median PBM intensity, better of two orientations. B42 was tested, and the binding signal was 6.82 ln median PBM intensity, better of two orientations. For B43, the binding signal was 9.92 ln median PBM intensity, better of two orientations. For B44, the binding signal was 6.88 ln median PBM intensity, better of two orientations.
